Assay results as given in US20200368345A1.

Biological target: HLA-A*02:01 molecule (as used for thermal stability and structures) (human)
Assay: thermal stability of the peptide-HLA-A*02:01 complex

Binder	Tm (temperature required to unfold 50% of the protein) of the pHLA-A*02:01 complex [° C.]
GLDNHTILL (modifications not checked) [BHA543-551 peptide]	72
NMLSTVLGV (modifications not checked) [PB1413-421 peptide]	72
